The data set concerns the molecule itself. As to the kind of experiment: SEC; fluorescence size exclusion chromatography (FSEC) on Superose 6 10/300 GL; crude membranes solubilized in FC-12 with cholesteryl-hemisuccinate, with 1 uM Astemizole; FSEC buffer 20 mM TRIS-HCl, 0.15 M NaCl, 0.03% DDM; mass by MW standards, amount of detergent in the complex unknown. For orientation: SEC sorts molecules by how far they enter the pores of the column.

The text below walks through data of publication PMC4341239, “High yield purification of full-length functional hERG K^+ channels produced in Saccharomyces cerevisiae” (Microbial Cell Factories, 2015).

B1: hERG-TEV-GFP-His 8 fusion protein (full-length hERG alpha-subunit, Kv11.1) (natural protein, human, UniProt Q12809 1-1159, looked up)
chain: MPVRRGHVAPQNTFLDTIIRKFEGQSRKFIIANARVENCAVIYCNDGFCELCGYSRAEVMQRPCTCDFLHGPRTQRRAAAQIAQALLGAEERKVEIAFYRKDGSCFLCLVDVVPVKNEDGAVIMFILNFEVVMEKDMVGSPAHDTNHRGPPTSWLAPGRAKTFRLKLPALLALTARESSVRSGGAGGAGAPGAVVVDVDLTPAAPSSESLALDEVTAMDNHVAGLGPAEERRALVGPGSPPRSAPGQLPSPRAHSLNPDASGSSCSLARTRSRESCASVRRASSADDIEAMRAGVLPPPPRHASTGAMHPLRSGLLNSTSDSDLVRYRTISKIPQITLNFVDLKGDPFLASPTSDREIIAPKIKERTHNVTEKVTQVLSLGADVLPEYKLQAPRIHRWTILHYSPFKAVWDWLILLLVIYTAVFTPYSAAFLLKETEEGPPATECGYACQPLAVVDLIVDIMFIVDILINFRTTYVNANEEVVSHPGRIAVHYFKGWFLIDMVAAIPFDLLIFGSGSEELIGLLKTARLLRLVRVARKLDRYSEYGAAVLFLLMCTFALIAHWLACIWYAIGNMEQPHMDSRIGWLHNLGDQIGKPYNSSGLGGPSIKDKYVTALYFTFSSLTSVGFGNVSPNTNSEKIFSICVMLIGSLMYASIFGNVSAIIQRLYSGTARYHTQMLRVREFIRFHQIPNPLRQRLEEYFQHAWSYTNGIDMNAVLKGFPECLQADICLHLNRSLLQHCKPFRGATKGCLRALAMKFKTTHAPPGDTLVHAGDLLTALYFISRGSIEILRGDVVVAILGKNDIFGEPLNLYARPGKSNGDVRALTYCDLHKIHRDDLLEVLDMYPEFSDHFWSSLEITFNLRDTNMIPGSPGSTELEGGFSRQRKRKLSFRRRTDKDTEQPGEVSALGPGRAGAGPSSRGRPGGPWGESPSSGPSSPESSEDEGPGRSSSPLRLVPFSSPRPPGEPPGGEPLMEDCEKSSDTCNPLSGAFSGVSNIFSFWGDSRGRQYQELPRCPAPTPSLLNIPLSSPGRRPRGDVESRLDALQRQLNRLETRLSADMATVLQLLQRQMTLVPPAYSAVTTPGPGPTSTSPLLPVSPLPTLTLDSLSQVSQFMACEELPPGAPELPQEGPTRRLSLPGQLGALTSQPLHRHGSDPGS
modifications: N-glycosylated in S. cerevisiae
notes: the fusion is 156 kDa; also called hERG-GFP-His 8; hERG-GFP; source: S. cerevisiae strain PAP1500, induced at 15°C; crude membranes solubilized in FC-12 with cholesteryl-hemisuccinate; not shown: GFP (yEGFP, after a TEV cleavage site), C-terminal, kept; His8, C-terminal, kept
As usually defined, the stoichiometry N is a count of units in the complex or per binding partner. For the protein B1, the “stoichiometry N” value was found to be 4.
